From paper PMC5994540

B1: GluN3A subunit: GluN3A-1/4N→Q (protein)
parent chain: MRRLSLWWLLSRVCLLLPPPCALVLAGVPSSSSHPQPCQILKRIGHAVRVGAVHLQPWTTAPRAASRAQEGGRAGAQRDDPESGTWRPPAPSQGARWLGSALHGRGPPGSRKLGEGAGAETLWPRDALLFAVENLNRVEGLLPYNLSLEVVMAIEAGLGDLPLMPFSSPSSPWSSDPFSFLQSVCHTVVVQGVSALLAFPQSQGEMMELDLVSSVLHIPVLSIVRHEFPRESQNPLHLQLSLENSLSSDADVTVSILTMNNWYNFSLLLCQEDWNITDFLLLTENNSKFHLESVINITANLSSTKDLLSFLQVQMDNIRNSTPTMVMFGCDMDSIRQIFEMSTQFGLSPPELHWVLGDSQNVEELRTEGLPLGLIAHGKTTQSVFEYYVQDAMELVARAVATATMIQPELALLPSTMNCMDVKTTNLTSGQYLSRFLANTTFRGLSGSIKVKGSTIISSENNFFIWNLQHDPMGKPMWTRLGSWQGGRIVMDSGIWPEQAQRHKTHFQHPNKLHLRVVTLIEHPFVFTREVDDEGLCPAGQLCLDPMTNDSSMLDRLFSSLHSSNDTVPIKFKKCCYGYCIDLLEQLAEDMNFDFDLYIVGDGKYGAWKNGHWTGLVGDLLSGTANMAVTSFSINTARSQVIDFTSPFFSTSLGILVRTRDTAAPIGAFMWPLHWTMWLGIFVALHITAIFLTLYEWKSPFGMTPKGRNRNKVFSFSSALNVCYALLFGRTAAIKPPKCWTGRFLMNLWAIFCMFCLSTYTANLAAVMVGEKIYEELSGIHDPKLHHPSQGFRFGTVRESSAEDYVRQSFPEMHEYMRRYNVPATPDGVQYLKNDPEKLDAFIMDKALLDYEVSIDADCKLLTVGKPFAIEGYGIGLPPNSPLTSNISELISQYKSHGFMDVLHDKWYKVVPCGKRSFAVTETLQMGIKHFSGLFVLLCIGFGLSILTTIGEHIVHRLLLPRIKNKSKLQYWLHTSQRFHRALNTSFVEEKQPRSKTKRVEKSRWRRWTCKTEGDSELSLFPRSNLGPQQLMVWNTSNLSHDNQRKYIFNDEEGQNQLGTQAHQDIPLPQRRRELPASLTTNGKADSLNVTRSSVIQELSELEKQIQVIRQELQLAVSRKTELEEYQKTNRTCES
B2: GluN3A subunit: PNGase F (protein)
parent chain: B1 parent chain
B3: GluN3A subunit: DMM (protein)
parent chain: B1 parent chain
B4: GluN3A subunit: kifunensine (protein)
parent chain: B1 parent chain
B5: GluN3A subunit: DNJ (protein)
parent chain: B1 parent chain
B6: GluN3A subunit: swainsonine (protein)
parent chain: B1 parent chain
B7: GluN3A subunit: tunicamycin (protein)
parent chain: B1 parent chain
B8: GluN3A subunit: GluN3A-12N→12Q (protein)
parent chain: B1 parent chain
B9: GluN3A subunit: N565Q (protein)
parent chain: B1 parent chain
B10: GluN3A subunit: N426Q (protein)
parent chain: B1 parent chain
B11: GluN3A subunit: N296Q (protein)
parent chain: B1 parent chain
B12: GluN3A subunit: N275Q (protein)
parent chain: B1 parent chain
B13: GluN3A subunit: GluN3A-1/2N→Q (protein)
parent chain: B1 parent chain
B14: GluN3A subunit: GluN3A-2/2N→Q (protein)
parent chain: B1 parent chain
B15: GluN3A subunit: N320Q (protein)
parent chain: B1 parent chain
B16: GluN3A subunit: N439Q (protein)
parent chain: B1 parent chain
B17: GluN3A subunit: N886Q (protein)
parent chain: B1 parent chain
B18: GluN3A subunit: N549Q (protein)
parent chain: B1 parent chain
B19: GluN3A subunit: N285Q (protein)
parent chain: B1 parent chain
B20: GluN3A subunit: N300Q (protein)
parent chain: B1 parent chain
B21: GluN3A subunit: DPAGT1-CDG (protein)
parent chain: B1 parent chain
B22: GluN3A subunit: ALG8-CDG (protein)
parent chain: B1 parent chain

Assay: whole-cell patch clamp, 500 μM glycine, HEK293
Conditions: glycan lost; control: wild-type GluN1/GluN3A, untreated

Protein | other: channel desensitisation (τw), other: τw of desensitization
B1 | no change
B2 | no change

Assay: surface immunofluorescence, GluN1/GluN3A in COS-7
Conditions: glycan changed form; control: untreated

Protein | localisation_or_trafficking
B3 | no change
B4 | no change
B5 | no change
B6 | no change

Same assay, conditions: glycan lost; control: untreated

Protein | localisation_or_trafficking
B7 | decreases

Assay: surface/total immunofluorescence, COS-7, with GluN1-4a
Conditions: glycan lost; control: wild-type GluN1/GluN3A

Protein | localisation_or_trafficking
B8 | abolishes
B9 | no change
B10 | no change
B11 | no change
B12 | no change
B13 | decreases
B14 | no change
B15 | no change
B1 | decreases
B16 | no change
B17 | no change
B18 | no change
B19 | no change
B20 | no change

Assay: spine/shaft GFP fluorescence ratio, hippocampal neurons
Conditions: glycan lost; control: wild-type GluN3A

Protein | localisation_or_trafficking
B8 | decreases
B1 | decreases

Assay: surface biotinylation, endogenous GluN3A, rat hippocampal neurons
Conditions: glycan changed form; control: untreated

Protein | localisation_or_trafficking
B3 | no change
B4 | no change
B5 | no change
B6 | no change

Same assay, conditions: glycan lost; control: untreated

Protein | localisation_or_trafficking
B7 | decreases

Assay: surface/total GFP immunofluorescence, hippocampal neuron dendrites
Conditions: glycan lost; control: wild-type GluN3A

Protein | localisation_or_trafficking
B8 | decreases
B13 | decreases
B14 | no change
B1 | decreases

Assay: surface/total GFP immunofluorescence, GFP-GluN3A in hippocampal neurons
Conditions: glycan changed form; control: untreated

Protein | localisation_or_trafficking
B3 | no change
B4 | no change
B5 | no change
B6 | no change

Same assay, conditions: glycan lost; control: untreated

Protein | localisation_or_trafficking
B7 | decreases

Assay: surface immunofluorescence, GluN1/GluN3A in human CDG patient fibroblasts
Conditions: glycan lost; control: control fibroblasts

Protein | localisation_or_trafficking
B21 | no change
B22 | decreases
